Test results reported in the supplement of paper PMC9112550, “Optimization of the antimicrobial peptide Bac7 by deep mutational scanning” (BMC Biology, 2022).

System: Escherichia coli TOP10
Assay: shrunken log2 fold change of peptide-encoding DNA abundance (4.5 h post-induction vs induction); higher = less antimicrobial activity (less host growth inhibition)
Conditions: time post-induction: 4.5 h; library: site-saturation at positions 5, 18, 19, 20
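Further: peptides expressed intracellularly from a pBAD plasmid library in pooled LB shake-flask culture, induced with 0.3% L-arabinose, DNA abundance read by NGS, three biological replicates, DESeq2 with apeglm shrinkage.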

| Sequence | shrunken log2 fold change |
| --- | --- |
| RRIRYRPPRLPRPRPRPDCIPRP | -0.501 |
| RRIRIRPPRLPRPRPRPYAFPRP | -1.1 |
| RRIRCRPPRLPRPRPRPDPRPRP | 0.83 |
| RRIRARPPRLPRPRPRPTMCPRP | -0.198 |
| RRIRRRPPRLPRPRPRPPQMPRP | 1.24 |
| RRIRHRPPRLPRPRPRPVLVPRP | -0.0156 |
| RRIRSRPPRLPRPRPRPTNIPRP | -0.434 |
| RRIRERPPRLPRPRPRPRCSPRP | 0.0243 |
| RRIRCRPPRLPRPRPRPWHVPRP | -0.259 |
| RRIRRRPPRLPRPRPRPDWSPRP | 0.182 |
| RRIRARPPRLPRPRPRPYGEPRP | -0.168 |
| RRIRKRPPRLPRPRPRPHMDPRP | 0.0185 |
| RRIRQRPPRLPRPRPRPWFVPRP | -0.423 |
| RRIRWRPPRLPRPRPRPDYSPRP | -0.106 |
| RRIRDRPPRLPRPRPRPLMRPRP | 0.665 |
| RRIRPRPPRLPRPRPRPNEKPRP | 0.023 |
| RRIRTRPPRLPRPRPRPIRAPRP | -0.0672 |
| RRIRCRPPRLPRPRPRPQDWPRP | -0.0628 |
| RRIRFRPPRLPRPRPRPDRRPRP | -0.39 |
| RRIRKRPPRLPRPRPRPELMPRP | 1.24 |
| RRIRARPPRLPRPRPRPQAYPRP | -0.0327 |
| RRIRFRPPRLPRPRPRPIFLPRP | -0.196 |
| RRIRTRPPRLPRPRPRPENDPRP | -0.0847 |

| Sequence | shrunken log2 fold change |
| --- | --- |
| RRIRWRPPRLPRPRPRPLHGPRP | 0.131 |
| RRIRARPPRLPRPRPRPSKNPRP | 0.235 |
| RRIRDRPPRLPRPRPRPRQEPRP | 0.0935 |
| RRIRARPPRLPRPRPRPVGQPRP | 0.225 |
| RRIRQRPPRLPRPRPRPEEIPRP | 0.0447 |
| RRIRKRPPRLPRPRPRPTRCPRP | 0.876 |
| RRIRTRPPRLPRPRPRPCSFPRP | -0.625 |
| RRIRSRPPRLPRPRPRPVNKPRP | -0.404 |
| RRIRERPPRLPRPRPRPGICPRP | -0.0398 |
| RRIRPRPPRLPRPRPRPDREPRP | 0.0682 |
| RRIRSRPPRLPRPRPRPPQHPRP | 0.184 |
| RRIRFRPPRLPRPRPRPKWDPRP | 0.117 |
| RRIRKRPPRLPRPRPRPDFQPRP | 0.33 |
| RRIRMRPPRLPRPRPRPPESPRP | 2.5 |
| RRIRFRPPRLPRPRPRPIDWPRP | -0.0094 |
| RRIRPRPPRLPRPRPRPQVYPRP | 0.962 |
| RRIRPRPPRLPRPRPRPCIHPRP | -0.252 |
| RRIRLRPPRLPRPRPRPKPIPRP | 0.111 |
| RRIRSRPPRLPRPRPRPWRAPRP | 0.183 |
| RRIRGRPPRLPRPRPRPGMYPRP | 0.191 |
| RRIRLRPPRLPRPRPRPSTPPRP | -0.207 |
| RRIRQRPPRLPRPRPRPNYGPRP | -0.299 |
| RRIRCRPPRLPRPRPRPIRNPRP | -0.182 |

| Sequence | shrunken log2 fold change |
| --- | --- |
| RRIRKRPPRLPRPRPRPAKDPRP | 0.247 |
| RRIRFRPPRLPRPRPRPEQMPRP | 0.19 |
| RRIRWRPPRLPRPRPRPATPPRP | 0.755 |
| RRIRSRPPRLPRPRPRPCNIPRP | -0.178 |
| RRIRDRPPRLPRPRPRPRQQPRP | 0.388 |
| RRIRHRPPRLPRPRPRPEFYPRP | -0.0662 |
| RRIRSRPPRLPRPRPRPKKLPRP | 0.0709 |
| RRIRPRPPRLPRPRPRPHIPPRP | -0.492 |
| RRIRARPPRLPRPRPRPEVRPRP | 0.623 |
| RRIRVRPPRLPRPRPRPDWAPRP | 0.133 |
| RRIRWRPPRLPRPRPRPNEWPRP | -0.0242 |
| RRIRRRPPRLPRPRPRPVDRPRP | 0.0916 |
| RRIRCRPPRLPRPRPRPMWLPRP | -0.235 |
| RRIRPRPPRLPRPRPRPQTRPRP | 0.227 |
| RRIRDRPPRLPRPRPRPIHMPRP | 0.0641 |
| RRIRLRPPRLPRPRPRPICEPRP | 0.0628 |
| RRIRTRPPRLPRPRPRPWWWPRP | -0.0964 |
| RRIRCRPPRLPRPRPRPSNEPRP | -0.379 |
| RRIRERPPRLPRPRPRPMDLPRP | -0.199 |
| RRIRYRPPRLPRPRPRPQVFPRP | 0.0195 |
| RRIRQRPPRLPRPRPRPDMAPRP | 0.0464 |
| RRIRPRPPRLPRPRPRPFLHPRP | -0.273 |
| RRIRFRPPRLPRPRPRPIFFPRP | -0.137 |

| Sequence | shrunken log2 fold change |
| --- | --- |
| RRIRSRPPRLPRPRPRPGSKPRP | -0.0053 |
| RRIRSRPPRLPRPRPRPANCPRP | -0.411 |
| RRIRMRPPRLPRPRPRPFMHPRP | -0.647 |
| RRIRVRPPRLPRPRPRPMAHPRP | 0.00201 |
| RRIRRRPPRLPRPRPRPNVLPRP | -0.185 |
| RRIRKRPPRLPRPRPRPRLLPRP | 0.517 |
| RRIRRRPPRLPRPRPRPNSHPRP | -0.11 |
| RRIRSRPPRLPRPRPRPEDLPRP | -0.0115 |
| RRIRQRPPRLPRPRPRPEVTPRP | -0.0614 |
| RRIRHRPPRLPRPRPRPNDRPRP | -0.104 |
| RRIRIRPPRLPRPRPRPNQDPRP | -0.507 |
| RRIRQRPPRLPRPRPRPDIMPRP | -0.136 |
| RRIRDRPPRLPRPRPRPWDNPRP | -0.00183 |
| RRIRQRPPRLPRPRPRPMYPPRP | -0.329 |
| RRIRGRPPRLPRPRPRPAHFPRP | 0.238 |
| RRIRPRPPRLPRPRPRPKIDPRP | 0.0162 |
| RRIRKRPPRLPRPRPRPFMWPRP | -0.078 |
| RRIRQRPPRLPRPRPRPSAQPRP | -0.223 |
| RRIRLRPPRLPRPRPRPLDQPRP | 0.105 |
| RRIRHRPPRLPRPRPRPHFMPRP | 0.00955 |
| RRIRPRPPRLPRPRPRPVIQPRP | -0.203 |
| RRIRRRPPRLPRPRPRPLRHPRP | 0.558 |
